From patent publication US20260055383 come the findings set out here.

What all share (assay): cell_activity
In data set [1] the test system is LINE1 R2.2 TAL-ssSPB M226F M226F (synthetic construct). Particulars: excision 45.14.
Data set [2] concerns LINE1 R2.2 TAL-ssSPB S301A S301A (synthetic construct). Particulars: excision 39.72.
Data set [3] concerns LINE1 R2.2 TAL-ssSPB K500R K500R (synthetic construct). Particulars: excision 33.92.
In data set [4] the test system is TAL-ssSPB off-target (not specific for LINE1) (synthetic construct). Particulars: off-target control; excision 34.56.
The test system of data set [5] is B2M right 12 bp TAL-ssSPB (synthetic construct). The note with it: paired with left 14 bp; replicate 7.46.
Data set [6] concerns B2M right 16 bp TAL-ssSPB (14 bp spacing) (synthetic construct). The note with it: paired with left 14 bp; replicate 7.76.
Data set [7] has as its system B2M left 10 bp TAL-ssSPB (synthetic construct). Particulars: paired with right 12 bp; replicate 5.48.
Data set [8] deals with B2M right 10 bp TAL-ssSPB (synthetic construct). The note with it: paired with left 9 bp; replicate 4.54.
Data set [9] deals with PBx (excision-only piggyBac transposase) (synthetic construct). The note with it: HEK293T, LINE1 integration 0.
Data set [10] relates to B2M left 14 bp TAL-ssSPB (synthetic construct). The note with it: paired with right 11 bp; replicate 8.87.
For data set [11], the system named is B2M left 9 bp TAL-ssSPB (synthetic construct). Particulars: paired with right 10 bp; replicate 4.54.
Data set [12] concerns B2M right 19 bp TAL-ssSPB (synthetic construct). The note with it: paired with left 14 bp; replicate 6.05.
Data set [13] concerns B2M right 20 bp TAL-ssSPB (synthetic construct). Particulars: paired with left 14 bp; replicate 5.61.
Data set [14] deals with B2M left 13 bp TAL-ssSPB (synthetic construct). The note with it: paired with right 12 bp; replicate 8.38.
In data set [15] the test system is B2M right 9 bp TAL-ssSPB (synthetic construct). The note with it: paired with left 10 bp; replicate 5.72.
Data set [16] has as its system B2M right 16 bp TAL-ssSPB (13 bp spacing) (synthetic construct). Particulars: paired with left 14 bp; replicate 7.18.
For data set [17], the system named is B2M right 17 bp TAL-ssSPB (14 bp spacing) (synthetic construct). The note with it: paired with left 14 bp; replicate 5.14.
For data set [18], the system named is B2M right 18 bp TAL-ssSPB (synthetic construct). Particulars: paired with left 14 bp; replicate 7.49.
The test system of data set [19] is B2M right 15 bp TAL-ssSPB (synthetic construct). The note with it: paired with left 14 bp; replicate 4.79.
The subject of data set [20] is B2M right 11 bp TAL-ssSPB (synthetic construct). The note with it: paired with left 14 bp; replicate 8.87.
Data set [21] has as its system B2M right 17 bp TAL-ssSPB (13 bp spacing) (synthetic construct). The note with it: paired with left 14 bp; replicate 4.52.

In the case of “TTGTCTCTTTT (double strand) [LINE1 R2.2 right target]”, the activity (% mScarlet positive cells) in data set [1] amounted to 21.6; in [2], 20.2; in data set [3] it was 19.1; in [4], 0.29.
“TCTGAGCTTCTAA (double strand) [B2M right 12 bp target]”: in data set [5], the activity (% B2M alleles edited) was determined as 6.8.
In [6], “TTGCATCTGAGCTTCTA (double strand) [B2M right 16 bp target, 14 bp spacing]” showed an activity (% B2M alleles edited) of 6.39.
The sequence “TCTGTGCTCTG (double strand) [B2M left 10 bp target]” showed an activity (% B2M alleles edited) in data set [7] of 6.02.
Sequence “TGAGCTTCTAA (double strand) [B2M right 10 bp target]” showed an activity (% B2M alleles edited) in data set [8] of 5.38.
With “CCCTAGAAAGATAGTCTGCGTAAAATTGACGCATG (double strand) [Symmetrical ITR 0 bp]”, the activity (% GFP positive cells) in data set [9] came out at 91.
For “TGAATCTGTGCTCTG (double strand) [B2M left 14 bp target]”, the activity (% B2M alleles edited) in [10] was found to be 7.63.
In turn, “TCTGTGCTCT (double strand) [B2M left 9 bp target]” came in with an activity (% B2M alleles edited) in data set [11] of 5.38.
The sequence “TCTTTGCATCTGAGCTTCTA (double strand) [B2M right 19 bp target]” yielded an activity (% B2M alleles edited) in data set [12] of 5.45.
In the case of “TCTTTGCATCTGAGCTTCTAA (double strand) [B2M right 20 bp target]”, the activity (% B2M alleles edited) in data set [13] stood at 4.65.
With “TGAATCTGTGCTCT (double strand) [B2M left 13 bp target]”, the activity (% B2M alleles edited) in data set [14] came out at 6.55.
Turning to “TGAGCTTCTA (double strand) [B2M right 9 bp target]”, the activity (% B2M alleles edited) in [15] was found to be 5.73.
“TGCATCTGAGCTTCTAA (double strand) [B2M right 16 bp target, 13 bp spacing]” yielded an activity (% B2M alleles edited) in [16] of 6.
Sequence “CCCTAGAAAGATAATCATGCGTAAAATTGACGCATG (double strand) [Symmetrical ITR 1bpSNP]” displayed an activity (% GFP positive cells) in [9] of 91.3.
For “TTTGCATCTGAGCTTCTA (double strand) [B2M right 17 bp target, 14 bp spacing]”, in data set [17], the activity (% B2M alleles edited) was found to be 4.96.
Regarding “TTTGCATCTGAGCTTCTAA (double strand) [B2M right 18 bp target]”, the activity (% B2M alleles edited) in [18] stood at 5.76.
The sequence “TGCATCTGAGCTTCTA (double strand) [B2M right 15 bp target]” came in with an activity (% B2M alleles edited) in [19] of 6.25.
In data set [9], “CCCTAGAAAGATAGTCTGCGTAAAATTGACGCATG / CCCTAGAAAGATAATCATATTGTGACGTACGTTAAAGATAATCATGCGTAAAATTGACGCATG [WT transposon ITRs (35 bp LE / 63 bp RE)]” returned an activity (% GFP positive cells) of 98.8.
Regarding “TCTGAGCTTCTA (double strand) [B2M right 11 bp target]”, the activity (% B2M alleles edited) in data set [20] came out at 7.63.
For “TTGCATCTGAGCTTCTAA (double strand) [B2M right 17 bp target, 13 bp spacing]”, the activity (% B2M alleles edited) in data set [21] is 5.66.
